The values that follow come from doi:10.1101/2024.11.24.625074, “Assembly and lipid-gating of LRRC8A:D volume-regulated anion channels” (bioRxiv, 2024).

The series concerns the molecule itself. Kind of series: cryo-EM structure; LRRC8A_(BRIL):D complexes co-expressed in Sf9, purified in 20 mM HEPES, 150 mM KCl, 1 mM EDTA, 0.02% GDN, pH 7.4; α-BRIL Fab BAG2 and α-Fab Nb added as fiducials; two conformations resolved by 3D variability analysis, C1 symmetry.

B1: Mus musculus LRRC8D (natural protein, UniProt Q8BGR2 1-859, looked up)
chain: MFTLAEVASLNDIQPTYRILKPWWDVFMDYLAVVMLMVAIFAGTMQLTKDQVVCLPVLPSPANSKAHTPPGNADITTEVPRMETATHQDQNGQTTTNDVAFGTSAVTPDIPLQATHPHAESTLPNQEAKKEKRDPTGRKTNLDFQQYVFINQMCYHLALPWYSKYFPYLALIHTIILMVSSNFWFKYPKTCSKVEHFVSILGKCFESPWTTKALSETACEDSEENKQRITGAQTLPKHVSTSSDEGSPSASTPMINKTGFKFSAEKPVIEVPSMTILDKKDGEQAKALFEKVRKFRAHVEDSDLIYKLYVVQTLIKTAKFIFILCYTANFVNAISFEHVCKPKVEHLTGYEVFECTHNMAYMLKKLLISYISIICVYGFICLYTLFWLFRIPLKEYSFEKVREESSFSDIPDVKNDFAFLLHMVDQYDQLYSKRFGVFLSEVSENKLREISLNHEWTFEKLRQHVSRNAQDKQELHLFMLSGVPDAVFDLTDLDVLKLELIPEAKIPAKISQMTNLQELHLCHCPAKVEQTAFSFLRDHLRCLHVKFTDVAEIPAWVYLLKNLRELYLIGNLNSENNKMIGLESLRELRHLKILHVKSNLTKVPSNITDVAPHLTKLVIHNDGTKLLVLNSLKKMMNVAELELQNCELERIPHAIFSLSNLQELDLKSNNIRTIEEIISFQHLKRLTCLKLWHNKIVAIPPSITHVKNLESLYFSNNKLESLPTAVFSLQKLRCLDVSYNNISTIPIEIGLLQNLQHLHITGNKVDILPKQLFKCVKLRTLNLGQNCIASLPEKISQLTQLTQLELKGNCLDRLPAQLGQCRMLKKSGLVVEDQLFDTLPLEVKEALNQDVNVPFANGI
notes: the tag was cut off with TEV protease during purification, so a short C-terminal remnant of the linker and the cleavage site is left; Two copies stand in the hexameric channel; also called mmLRRC8D; LRRC8D subunit; source: Sf9 cells, co-expressed with LRRC8A_(BRIL) from one baculovirus; purified in GDN (α-mCherry nanobody resin, α-GFP nanobody resin, Superose 6 Increase); not shown: mCherry, …
With B1, the binding result is given as “binds”.
